This note sets out measurements from the supplement of paper PMC7125110.

± gives the standard error. For some of these results: Fewer inactive variants are shown than the library holds.

First the molecules themselves.
B1: glmS ribozyme (parent)
chain: AUAAAAGCGCCAGAACUACAGAAAUGUAGUUGACGAGGAGGAGGUUUAUCGAAUUUUCGGCGGAUGCCUCCAAA

What all share (conditions): with glucosamine-6-phosphate
The variants in series [1] derive from B1. Kind of series: kcat; higher = faster cleavage; RNA array. The gist of the method: (§1)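 The measurements used barcoded ribozyme variants on sequenced MiSeq chips, transcribed in situ by E. coli RNA polymerase and tracked at 37 °C with a hybridised Cy3 probe. Glucosamine-6-phosphate, 40 μM to 10 mM in HEPES/KCl/Mg(OAc)2 buffer, was flowed in while tiles were imaged over ~14 h. Baseline-normalised signals, also normalised to non-cleaving reference variants, gave per-tile medians that were fit to one- or two-exponential decays for kobs. kcat and KM resulted from weighted Michaelis–Menten fits across concentrations.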

Series [2] covers variants of B1. Kind of series: self-cleavage kobs at 640 uM GlcN6P; higher = faster cleavage; RNA array. The method in brief: as §1
Variants of B1 are the subject of series [3]. Description: self-cleavage kobs at 2500 uM GlcN6P; higher = faster cleavage; RNA array. The method in brief: as §1
Variants of B1 are the subject of series [4]. Kind of series: self-cleavage kobs at 10000 uM GlcN6P; higher = faster cleavage; RNA array. The method in brief:
as §1

The variants in series [5] derive from B1. Kind of series: KM; higher = weaker cofactor use; RNA array. The gist of the method:
as §1

The variants in series [6] derive from B1. Kind of series: self-cleavage kobs at 160 uM GlcN6P; higher = faster cleavage; RNA array. The method in brief: as §1
The variants in series [7] derive from B1. Kind of series: self-cleavage kobs at 40 uM GlcN6P; higher = faster cleavage; RNA array. The gist of the method: as §1

By kcat is commonly meant the maximal rate divided by the concentration of active sites. As to AUAAAAGCGCCAGAUCUACAGAAAUGUAGUUGACGAGGAGGAGUUUGAUCGAAUUUUCGGCGGAUGGCUCCAAA [A15U G44U U47G C67G], the kcat in series [1] amounted to 0.000544 ± 0.00017 s⁻¹. Also, the “self-cleavage kobs at 640 uM GlcN6P” value in series [2] turned out to be 0.000193 ± 3.9e-05 s⁻¹. For the same variant, in series [3], the “self-cleavage kobs at 2500 uM GlcN6P” value stood at 0.000563 ± 9.9e-05 s⁻¹. In addition, in series [4], the “self-cleavage kobs at 10000 uM GlcN6P” value amounted to 0.000418 ± 9.9e-05 s⁻¹.
In the case of AUAAAAGCGCCGGAACUACAGAAAUGUAGUUCACGAGGAGGAGGUUUAUCGAAUUUUCGGCGGAUGCGUCCAAA [A12G G32C C68G], in series [1], the kcat was 1.4e-05 ± 2.2e-06 s⁻¹.
As usually defined, the KM is the concentration of substrate that gives half-maximal velocity. With AUAAAAGCGCCAGAACUACAGAAAUGUAGUUGACGAGGAGGAGGUUUAGCGUAUUUUCGGCGGAUGCCUCCAAA [U49G A52U], the kcat in series [1] stood at 1.85e-05 ± 1.5e-06 s⁻¹. In addition, the KM in series [5] turned out to be 2320 ± 910 µM. Besides, in series [6], the “self-cleavage kobs at 160 uM GlcN6P” value was under 1e-05 s⁻¹.
AUAAAAGCGGCAGAACUACAGAAAUGUAGUUGACGAGGAGGAGGUUUAUCGAAUUAUCGGCGGAUGCCUCCAAA [C10G U56A]: the kcat in series [1] is under 1e-05 s⁻¹. In series [6], the “self-cleavage kobs at 160 uM GlcN6P” value is under 1e-05 s⁻¹. Further, the “self-cleavage kobs at 640 uM GlcN6P” value in series [2] was under 1e-05 s⁻¹.
Consider AUAAAAGCGCCAGAACUACAGAAAUGUAUUUGACGAGGAGGAGGUUUAUCGUAUUUUCGGCGGAUGCCUCCAAA [G29U A52U], for which the kcat in series [1] was 0.000123 ± 1.2e-05 s⁻¹. Also, the KM in series [5] was determined as 4620 ± 1400 µM. Further, the “self-cleavage kobs at 10000 uM GlcN6P” value in series [4] came out at 8.41e-05 ± 1e-05 s⁻¹.
Take AUAAAAGCGCCCGAACUACAGAAAUGUAGUUGACGAGGAGGAGGUUUAUCGAAUUUUCGGAGGAUGCCUCCAAA [A12C C61A]: in series [1], the kcat was under 1e-05 s⁻¹. For the same variant, the “self-cleavage kobs at 10000 uM GlcN6P” value in series [4] was under 1e-05 s⁻¹.
On to AUAAAAGCGUCAGAACUACAGAAAUGUAGCUGACGAGGAGGAGGUUUAUCGAAUUUUCAACGGAUGCCUUCAAA [C10U U30C G59A G60A C70U], for which the kcat in series [1] is under 1e-05 s⁻¹. In series [7], the “self-cleavage kobs at 40 uM GlcN6P” value was under 1e-05 s⁻¹.
For the variant AUAAACGCGCCAGGACUACAGAAAUGUAGUUGACGAGGAGGAGGUUUAUCGAAUUUUCGGCGGAUGCCUCCAAA [A6C A14G], the kcat in series [1] is 0.000252 ± 8.5e-06 s⁻¹. Also, the KM in series [5] turned out to be 1220 ± 210 µM. In addition, the “self-cleavage kobs at 2500 uM GlcN6P” value in series [3] worked out at 0.000164 ± 3.1e-05 s⁻¹. In addition, the “self-cleavage kobs at 10000 uM GlcN6P” value in series [4] came out at 0.000226 ± 2.3e-05 s⁻¹.
With AUAAAAGCGCCAGAACUACAGAAAUGUAGUUGACGAGGAGGAGGUUCAUCGAAUUUUCGGCGGAUGGCUCCAAA [U47C C67G], in series [1], the kcat was 0.000337 ± 4.8e-05 s⁻¹. Further, in series [5], the KM came out at 1740 ± 450 µM. Further, in series [6], the “self-cleavage kobs at 160 uM GlcN6P” value amounted to 3.84e-05 ± 8.3e-06 s⁻¹. In series [2], the “self-cleavage kobs at 640 uM GlcN6P” value was 8.28e-05 ± 9.1e-06 s⁻¹. In addition, the “self-cleavage kobs at 2500 uM GlcN6P” value in series [3] amounted to 0.000239 ± 3.4e-05 s⁻¹. Further, the “self-cleavage kobs at 10000 uM GlcN6P” value in series [4] turned out to be 0.000279 ± 3.1e-05 s⁻¹.
Regarding AUAAAAGCGCCAGAGCUACAGAAAUGUAGUUGACGAGGAGGAGGUUUAUCGAAUUUUCGGCCGAUGCCGCCAAA [A15G G62C U69G], in series [1], the kcat is 1.74e-05 ± 5.1e-06 s⁻¹.
In the case of AUAAAAGCGCCAGAACUACAGAAAUGUAGUUGACGAGGAGGGGGUUUAUCGAAUUUACGGCGGAUGCCUCCAAA [A42G U57A], the turnover number (kcat) in series [1] worked out at 0.000299 ± 4.6e-05 s⁻¹. Further, the “self-cleavage kobs at 40 uM GlcN6P” value in series [7] was under 1e-05 s⁻¹. Besides, the “self-cleavage kobs at 640 uM GlcN6P” value in series [2] turned out to be 0.000118 ± 3.7e-05 s⁻¹. For the same variant, the “self-cleavage kobs at 2500 uM GlcN6P” value in series [3] was 0.000351 ± 0.00012 s⁻¹. Further, the “self-cleavage kobs at 10000 uM GlcN6P” value in series [4] amounted to 0.000266 ± 4.4e-05 s⁻¹.
Regarding AUAAAAGCGCCAGAACUACAGAAAUGUAGUUGAUGAGGAGGAGGUUUGUCGAAUUUUCGGCGGAUGCAUCCAAA [C34U A48G C68A], the kcat in series [1] is under 1e-05 s⁻¹. Moreover, in series [7], the “self-cleavage kobs at 40 uM GlcN6P” value was under 1e-05 s⁻¹. The “self-cleavage kobs at 2500 uM GlcN6P” value in series [3] was under 1e-05 s⁻¹.
As to AUAAAAGCGCCAGUACUACAGAAAUGUAGUUGACGAGGGGGAGGUUUAUCGAAUUUUCGGCGGAUGCCUCCAAA [A14U A39G], the kcat in series [1] is 0.0158 ± 0.0077 s⁻¹. The “self-cleavage kobs at 40 uM GlcN6P” value in series [7] was determined as 0.000381 ± 6.3e-05 s⁻¹. The “self-cleavage kobs at 160 uM GlcN6P” value in series [6] was found to be 0.000604 ± 0.00015 s⁻¹. Further, in series [2], the “self-cleavage kobs at 640 uM GlcN6P” value amounted to 0.00493 ± 0.0011 s⁻¹. The “self-cleavage kobs at 2500 uM GlcN6P” value in series [3] stood at 0.00644 ± 0.0013 s⁻¹. Also, the “self-cleavage kobs at 10000 uM GlcN6P” value in series [4] was determined as 0.0136 ± 0.0025 s⁻¹.
AUAAAAGCGCCAGAACUACAGAAAUGUAGUUGACGAGGAGGAGGUUGAUCGAAUUUUCGGCGGAUGGCUCCAAA [U47G C67G]: in series [1], the kcat was found to be 0.000689 ± 0.00022 s⁻¹. In addition, the “self-cleavage kobs at 40 uM GlcN6P” value in series [7] was 7.66e-05 ± 1.4e-05 s⁻¹. Further, the “self-cleavage kobs at 160 uM GlcN6P” value in series [6] was determined as 0.000105 ± 1.9e-05 s⁻¹. The “self-cleavage kobs at 640 uM GlcN6P” value in series [2] amounted to 0.000248 ± 2.3e-05 s⁻¹. Also, in series [3], the “self-cleavage kobs at 2500 uM GlcN6P” value came out at 0.000429 ± 5.2e-05 s⁻¹. Besides, the “self-cleavage kobs at 10000 uM GlcN6P” value in series [4] came to 0.000816 ± 9.6e-05 s⁻¹.
AUAAAAGCGCCUGAACUACAGAAAUGUAGUUGACGAGGCGGAGGUUUAUCGAAUUGUCGGCGGAUGCCUCCAAA [A12U A39C U56G]: in series [1], the kcat came out at 0.00242 ± 0.00054 s⁻¹. For the same variant, the KM in series [5] came to 3430 ± 1000 µM. In addition, the “self-cleavage kobs at 40 uM GlcN6P” value in series [7] was 2.75e-05 ± 1e-05 s⁻¹. The “self-cleavage kobs at 160 uM GlcN6P” value in series [6] was determined as 0.000109 ± 1.8e-05 s⁻¹. Further, the “self-cleavage kobs at 640 uM GlcN6P” value in series [2] came to 0.000287 ± 0.00011 s⁻¹. The “self-cleavage kobs at 2500 uM GlcN6P” value in series [3] is 0.00138 ± 0.00027 s⁻¹. The “self-cleavage kobs at 10000 uM GlcN6P” value in series [4] worked out at 0.00168 ± 0.00031 s⁻¹.
For the variant AUAAAAGCGCCAGAGCUACAGAAAUGUAGUUGACGAGGAGGAGGUUUAUCGAAUUAUCGGCGGAUGCCUCCAAA [A15G U56A], the kcat in series [1] came to 0.00941 ± 0.0033 s⁻¹. Further, the Michaelis-Menten constant (KM) in series [5] was 1700 ± 790 µM. In addition, in series [7], the “self-cleavage kobs at 40 uM GlcN6P” value was 0.000313 ± 3.4e-05 s⁻¹. Also, the “self-cleavage kobs at 160 uM GlcN6P” value in series [6] worked out at 0.000554 ± 9.9e-05 s⁻¹. The “self-cleavage kobs at 640 uM GlcN6P” value in series [2] is 0.00267 ± 0.00031 s⁻¹. For the same variant, the “self-cleavage kobs at 2500 uM GlcN6P” value in series [3] amounted to 0.00536 ± 0.0015 s⁻¹. Besides, in series [4], the “self-cleavage kobs at 10000 uM GlcN6P” value amounted to 0.00825 ± 0.0011 s⁻¹.
With AUAAAAGCGCCAGUACUACAGAAAUGUAGUUGACGAGGAGGAGGUUUCUCGAAUUUUCGGCGGAUGCCUCCAAA [A14U A48C], the kcat in series [1] is 7.33e-05 ± 4.6e-06 s⁻¹. Further, the KM in series [5] came to 2020 ± 420 µM. Besides, the “self-cleavage kobs at 2500 uM GlcN6P” value in series [3] stood at 3.85e-05 ± 9.5e-06 s⁻¹. Besides, the “self-cleavage kobs at 10000 uM GlcN6P” value in series [4] is 6.17e-05 ± 9.4e-06 s⁻¹.
On to AUAAAAGCGCCAGAGCUACAGAAAUGUAGUUGACGAGGAGGAGGUUUAUCGAAUUUUGGGCGGAUGCCUCCAAA [A15G C58G], for which the kcat in series [1] is 0.00042 ± 0.00013 s⁻¹. The “self-cleavage kobs at 2500 uM GlcN6P” value in series [3] was found to be 8.41e-05 ± 1.3e-05 s⁻¹. Also, the “self-cleavage kobs at 10000 uM GlcN6P” value in series [4] was 0.000197 ± 6.1e-05 s⁻¹.
On to AUAAAAGCGCCAGAACUACAGAAAUGUACGUGACGAGGAGGAGGUUUAUCGAAUUUUCGGCGGAUGCCUCCAAA [G29C U30G], for which the kcat in series [1] came to 0.00361 ± 0.0014 s⁻¹. Besides, in series [7], the “self-cleavage kobs at 40 uM GlcN6P” value is 8.92e-05 ± 1.8e-05 s⁻¹. Also, the “self-cleavage kobs at 160 uM GlcN6P” value in series [6] was determined as 0.000309 ± 6.9e-05 s⁻¹. For the same variant, in series [2], the “self-cleavage kobs at 640 uM GlcN6P” value came out at 0.00138 ± 0.00041 s⁻¹. In series [3], the “self-cleavage kobs at 2500 uM GlcN6P” value is 0.00147 ± 0.00036 s⁻¹. Moreover, in series [4], the “self-cleavage kobs at 10000 uM GlcN6P” value came to 0.00472 ± 0.00086 s⁻¹.
